Legend:
Experiment in all cases: SPR
[1] = target: Biotin-labeled SUMO-fusion mouse TRIM14 (residues 247-440) (mouse) (UniProt Q8BVW3)
[2] = target: T1, full-length human TBK1 (human, UniProt Q9UHD2 1-729)
T1 sequence (looked up): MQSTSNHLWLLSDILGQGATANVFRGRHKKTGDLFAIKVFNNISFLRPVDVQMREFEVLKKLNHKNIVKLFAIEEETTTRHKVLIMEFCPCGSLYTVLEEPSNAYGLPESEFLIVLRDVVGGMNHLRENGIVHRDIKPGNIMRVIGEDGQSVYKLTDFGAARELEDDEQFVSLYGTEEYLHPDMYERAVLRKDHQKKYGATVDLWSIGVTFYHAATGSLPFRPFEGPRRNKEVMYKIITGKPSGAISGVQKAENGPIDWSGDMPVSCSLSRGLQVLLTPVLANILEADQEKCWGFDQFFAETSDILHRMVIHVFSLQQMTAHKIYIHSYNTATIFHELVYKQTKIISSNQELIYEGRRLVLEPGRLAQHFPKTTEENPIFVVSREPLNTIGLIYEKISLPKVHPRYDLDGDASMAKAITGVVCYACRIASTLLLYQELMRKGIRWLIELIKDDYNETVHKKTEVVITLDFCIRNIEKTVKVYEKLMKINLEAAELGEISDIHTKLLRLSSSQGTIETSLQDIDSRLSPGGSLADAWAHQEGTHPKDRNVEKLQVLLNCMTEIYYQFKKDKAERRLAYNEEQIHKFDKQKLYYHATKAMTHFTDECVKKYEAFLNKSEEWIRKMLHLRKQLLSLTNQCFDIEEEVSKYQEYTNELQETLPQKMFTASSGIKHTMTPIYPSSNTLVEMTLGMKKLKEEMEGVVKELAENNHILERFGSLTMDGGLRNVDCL

[3] = target: human cGAS (residues 157-522) (human, UniProt Q8N884 157-522)
human cGAS (residues 157-522), sequence (Q8N884 157-522): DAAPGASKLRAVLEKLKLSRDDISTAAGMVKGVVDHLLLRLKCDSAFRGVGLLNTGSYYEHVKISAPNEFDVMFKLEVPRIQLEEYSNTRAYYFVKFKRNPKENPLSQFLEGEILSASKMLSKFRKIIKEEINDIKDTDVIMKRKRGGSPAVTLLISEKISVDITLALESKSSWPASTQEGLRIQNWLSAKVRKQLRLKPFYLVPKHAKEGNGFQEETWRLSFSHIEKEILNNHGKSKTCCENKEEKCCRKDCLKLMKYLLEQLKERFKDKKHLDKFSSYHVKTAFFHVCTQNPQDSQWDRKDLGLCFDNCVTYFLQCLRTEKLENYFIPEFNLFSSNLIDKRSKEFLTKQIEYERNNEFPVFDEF

human TBK1 (residues 1 to 657) (from UniProt Q9UHD2 1-657) (domain or fragment)
Kd [1]: 42.6 µM

mouse TBK1 (residues 1 to 657) (from UniProt Q9WUN2 1-657) (domain or fragment)
Kd [1]: 24.3 µM

B1: Biotin-labeled SUMO-fusion mouse TRIM14 (residues 247-440) (domain or fragment, UniProt Q8BVW3 247-440, looked up)
chain: ALLKTSPSPERALFLKYARTPTLDPDTMHARLRLSPDGLTVRCSLLGRLGPRPAPRFDALRQVLGRDGFAAGRHYWEVDVQEAGVGWWVGAAYPSLRRRGASAAARLGCNRESWCVKRYDLEYWAFHDGQRSRLRPRRDPHRLGVFLDYEAGILAFYDVAGGMSHLHTFHAAFQEPLYPALRLWEGPISIPRLP
modifications: biotin (Avi tag, labelled by BirA)
Kd [2]: 11 µM
Kd [3]: 25.8 µM
